According to PMC9278964:
Read-outs that look alike come from different tables or passages of the source.

Assays:
[1] = biological target: biotinylated PD-L1 (Homo sapiens (assumed)) (UniProt Q9NZQ7); assay: ELISA
[2] = biological target: biotinylated PD-L1 (Homo sapiens (assumed)) (UniProt Q9NZQ7); assay: ELISA; remark: listed apart in the source

Chain of UniProt Q9NZQ7 (Q9NZQ7 19-290): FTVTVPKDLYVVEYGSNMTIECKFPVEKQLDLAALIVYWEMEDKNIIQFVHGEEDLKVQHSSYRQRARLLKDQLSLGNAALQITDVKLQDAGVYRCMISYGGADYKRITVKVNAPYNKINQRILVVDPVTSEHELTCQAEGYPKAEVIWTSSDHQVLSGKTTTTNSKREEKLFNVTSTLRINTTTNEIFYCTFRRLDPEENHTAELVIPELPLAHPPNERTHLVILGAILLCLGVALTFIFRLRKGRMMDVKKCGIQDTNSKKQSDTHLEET

**Q.** What does the source list for avelumab (antibody)?
**A.** EC50 [1]: 98 pM; EC50 [2]: 15 pM
